In US20240075137A1 (COMPUGEN, published 2024):
Read-outs that look alike come from different tables or passages of the source.

T1: human TIGIT on cells (human, UniProt Q495A1 22-141)
T1 construct: also called Expi293 human TIGIT over-expressing cells
T1 sequence: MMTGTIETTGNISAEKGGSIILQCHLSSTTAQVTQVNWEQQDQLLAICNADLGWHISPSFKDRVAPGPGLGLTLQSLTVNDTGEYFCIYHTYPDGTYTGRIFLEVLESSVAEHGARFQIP

T2: human PVRIG on cells (human, UniProt Q6DKI7 1-326)
T2 construct: whole, on cells; over-expressed on HEK cells or endogenous on Jurkat and CD8 T cells; also called hPVRIG; HEK hPVRIG cells
T2 sequence (looked up): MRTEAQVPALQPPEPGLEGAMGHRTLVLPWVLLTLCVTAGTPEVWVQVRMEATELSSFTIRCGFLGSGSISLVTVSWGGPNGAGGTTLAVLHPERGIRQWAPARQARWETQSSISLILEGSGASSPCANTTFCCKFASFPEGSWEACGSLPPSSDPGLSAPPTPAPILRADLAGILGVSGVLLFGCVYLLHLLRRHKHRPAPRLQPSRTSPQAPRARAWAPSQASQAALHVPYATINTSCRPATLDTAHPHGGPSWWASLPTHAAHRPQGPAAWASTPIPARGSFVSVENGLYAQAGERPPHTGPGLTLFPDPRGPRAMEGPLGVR

T3: cynomolgus PVRIG on cells (cynomolgus, UniProt A0A2K5WVV8 41-322)
T3 construct: whole, on cells; also called cPVRIG; expi cPVRIG cells
T3 sequence: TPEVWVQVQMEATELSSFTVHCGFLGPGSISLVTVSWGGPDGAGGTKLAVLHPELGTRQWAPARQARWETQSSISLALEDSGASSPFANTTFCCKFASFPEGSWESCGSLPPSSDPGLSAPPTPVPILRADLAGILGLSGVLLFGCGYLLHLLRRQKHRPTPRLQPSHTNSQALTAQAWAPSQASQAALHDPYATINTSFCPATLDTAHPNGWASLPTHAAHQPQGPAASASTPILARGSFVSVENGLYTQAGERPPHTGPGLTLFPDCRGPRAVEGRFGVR

T4: PVRIG (FACS-based competition assay of FIGS. 7 and 15) (Homo sapiens, UniProt Q6DKI7)
T4 construct: made because the format of the assay is only described in U.S. Ser. No. 15/048,967; also called human PVRIG
T4 sequence (receptor, looked up): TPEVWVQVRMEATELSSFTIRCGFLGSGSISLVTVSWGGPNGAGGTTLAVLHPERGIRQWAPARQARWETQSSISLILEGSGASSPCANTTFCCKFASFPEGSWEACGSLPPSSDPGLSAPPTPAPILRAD


What was measured:
human TIGIT on cells = molecular target: T1, human TIGIT on cells; test: flow cytometry of fab; MFI on human TIGIT over-expressing Expi293 / MFI on parental Expi293
human PVRIG on cells [1] = molecular target: T2, human PVRIG on cells; test: FACS, HEK hPVRIG cells (HEK OE)
human PVRIG on cells [2] = molecular target: T2, human PVRIG on cells; test: FACS, human PBMC, CD56 int. NK cells, 10ug/ml
human PVRIG on cells [3] = molecular target: T2, human PVRIG on cells; test: FACS, human PBMC, CD8+ T cells, 10ug/ml
[4] = molecular target: T3, cynomolgus PVRIG on cells; test: FACS, expi cPVRIG over expi parental cells, 3.3ug/ml
human PVRIG on cells [5] = molecular target: T2, human PVRIG on cells; test: FACS, HEK hPVRIG over HEK parental cells, 3.3ug/ml
[6] = molecular target: T3, cynomolgus PVRIG on cells; test: FACS, expi cPVRIG over expi parental cells, 3.3ug/ml; remark: listed apart in the source
[7] = molecular target: T4, PVRIG (FACS-based competition assay of …); test: FACS-based competition assay of PVRIG blocking; format and competitor not given
human PVRIG on cells [8] = molecular target: T2, human PVRIG on cells; test: FACS, human PBMC, CD56 int. NK cells, 10ug/ml; remark: listed apart in the source
human PVRIG on cells [9] = molecular target: T2, human PVRIG on cells; test: FACS, Jurkat cells, relative to control, 3.3ug/ml
human PVRIG on cells [10] = molecular target: T2, human PVRIG on cells; test: FACS, human PBMC, CD8+ T cells, 10ug/ml; remark: listed apart in the source
[11] = molecular target: T4, PVRIG (FACS-based competition assay of …); test: FACS-based competition assay of PVRIG blocking; format and competitor not given; remark: listed apart in the source
human PVRIG on cells [12] = molecular target: T2, human PVRIG on cells; test: FACS, human PBMC, CD8+ T cells, 10ug/ml; remark: listed apart in the source
human PVRIG on cells [13] = molecular target: T2, human PVRIG on cells; test: FACS, human PBMC, CD56 int. NK cells, 10ug/ml; remark: listed apart in the source
[14] = molecular target: T3, cynomolgus PVRIG on cells; test: FACS, expi cPVRIG over expi parental cells, 3.3ug/ml; remark: listed apart in the source

Binder	MFIr (OE/Par) hTIGIT (human TIGIT on cells)	EC50 (human PVRIG on cells [1]) [nM]	gMFIr Human CD56 int. NK (human PVRIG on cells [2])	gMFIr Human CD8+ T cells (human PVRIG on cells [3])	gMFIr Expi cyno OE/par [4]	gMFIr HEK OE/par (human PVRIG on cells [5])	gMFIr Expi cyno OE/par [6]	IC50 [7] [nM]	gMFIr Human CD56 int. NK (human PVRIG on cells [8])	gMFIr Jurkat (human PVRIG on cells [9])	gMFIr Human CD8+ T cells (human PVRIG on cells [10])	IC50 [11] [nM]	gMFIr Human CD8+ T cells (human PVRIG on cells [12])	gMFIr Human CD56 int. NK (human PVRIG on cells [13])	gMFIr Expi cyno OE/par [14]
CPA.9.018 (Fab, V domains shown, phage fab, campaign 1; fab form of CPA.9.018-H4; also called CPA.9.018 (fab)) VH: QVQLVESGGGLVQPGGSLRLSCAASGFTFSSYGMHWVRQAPGKGLEWVAFIRYDGSNKYYADSVKGRFTISRDNSKNTLYLQMNSLRAEDTAVYYCAKEMLVQDYYYMDVWGQGTTVTVSS VL: DVVMTQSPLSLPVSPGEPASISCRSSQNLLHRNGINYLNWYLQKPGQSPQLLIYWGSNRASGVPDRFSGSGSGTDFTLKISRVEAEDVGVYYCMQGLQIPPTFGQGTKVDIK	16	–	–	–	–	–	–	–	–	–	–	–	–	–	–
CHA.7.526 (antibody, V domains shown) VH: QVQLKESGPGLVAPSQSLSITCTVSGFSLTAYNINWVRQPPGKGLEWLGMIWGDGNTDYNSPLKSRLTISKDNSKSQVFLKMDSLQTDDTARYYCARDLKVRRDSPYTMDYWGQGTSVTVSS VL: NIMMTQSPSSLAVSAGEKVTMSCKSSQSVLYSSNQKNYLAWYQQKPGQSPKLLIYWASNRESGVPDRFTGSGSGTDFTLTISSVQAEDLAVYYCHQYLSSYTFGGGTKLEIK	–	2.99	2.08	1.71	0.79	47.3	0.79	58.9	2.08	3.98	1.71	58.9	–	–	–
CPA.9.059 (Fab, V domains shown, phage fab, campaign 2; fab form of CPA.9.059 hIgG4 (m73); also called CPA.9.059 (fab)) VH: EVQLVETGGGLIQPGGSLRLSCAASGFTVSSNYMSWVRQAPGKGLEWVSVIYSGGSTYYADSVKGRFTISRDNSKNTLYLQMNSLRAEDTAVYYCARGARYSYGQYPYWGQGTLVTVSS VL: DIQLTQSPSFLSASVGDRVTITCRASHDISSLFSWYQQKPGKAPKLLIYAASTLQTGVPSRFSGSASGTEFTLTISSLQPEDFATYYCLQLDSFPTWTFGQGTKVEIK	11	–	–	–	–	–	–	–	–	–	–	–	–	–	–
CHA.7.502 (antibody, V domains shown) VH: DVQLVESGGDLVQPGGSRKLSCTASGFTFSNFGMHWVRQAPEKGLEWVAYISSGSSTIYYADTVKGRFTISRDNPENTLFLQMTSLRSEDTAMYYCTRLDYYTNSYSMDHWGQGTSVTVSS VL: QIVLTQSPALMSASPGEKVTLTCSASSSLPYIYWYQQKPGSSPKPWIYLTSNLASGVPARFSGSRSGTSYSLTISSVEAEDAATYYCQQWSSNPFTFGSGTKLEIK	–	40.2	1.97	–	60.5	72	–	39.9	–	6.21	1.41	39.9	1.41	1.97	60.5
CHA.7.534 (antibody, V domains shown) VH: EVQLQQSGAELVKPGASVRLSCTASGFSIRDTYIHWVKQRPEQGLDWIGKIDPANGKSEYDPKFQGRATMTTDTSSNTAYLQLSSLTSEDTAVYYCTRYGYYPYFDVWGAGTTVTVFS VL: SIVMTQTPKFLLVSAGDRVAITCKASQSVRHDVVWYQQKPGQSPKLLIYYASSRYTGVPDRFTGSGYGTDFTFTISTVQAEDLALYFCLQDFSSPWTFGGGTKLEIK	–	1.87	2.6	1.96	46.3	43.7	46.3	181	2.6	5.05	1.96	181	–	–	–
CHA.7.508 (antibody, V domains shown) VH: EVQLQQSGPDLVKPGASMKISCKASGYTFIDYNIHWVKQSQGKSLDWIGYIYPYNGGTGYNQKFKNKATLTVDSSSSTAYMEVRSLTFEDSAVYFCAREADYYGNRGQFDYWGQGTLVTVSA VL: DIQMTQSPASLSVSVGETVTITCRASENIFSNLAWYQQKQGKSPQLLVYGEANLADGVPSRFSGSGSGTQYSLKINSLQSEDFGNYYCQHFWGTPYTFGGGTTLEIK	–	3.3	3.6	–	41.5	45.9	–	37.9	–	6.5	4.09	37.9	4.09	3.6	41.5
CHA.7.506 (antibody, V domains shown) VH: QVQLQQSGAELTRPGASVNLSCKASGYTFTSYWMQWVKQRPGQGLEWIGAIYPGDGDTRFNQKFKGKATLTADESSSTAYMQLSSLASEDSAVYYCATYYRYDDYWGQGTTLTVSS VL: QIVLTQSPAIMSASPGEKVTMTCSASSSVSYMHWYQQKSGTSPKRWIYDTSKLASGVPTRFSGSGSGTSYSLTISSMEAEDAATYYCQQWSSNPYTFGGGTKLEIK	–	–	–	–	0.77	0.76	–	31.6	–	–	–	31.6	–	–	0.77
CHA.7.503 (antibody, V domains shown) VH: QVQLQQSGAELAKPGASVKMSCKASGYTFTSNWMHWVKQRPGQGLEWIGYINPSNGYTECNQKFRDKATLSADKSSSTAYMQLNSLTSADSAVYYCALMISAWLPYWGQGTLVTVSA VL: DIVLTQSPASLAISLGQRATISCRASQSVSASSYSYVHWYQQKPGQPPKLLIKYASSLESGVPARFSGSGSGTDFTLNIHPVEEEDTATYYCLHTWEIPYTFGGGTKLEIK	–	1.05	3.15	–	106	261	–	–	–	23.6	1.96	–	1.96	3.15	106
CHA.7.535 (antibody, V domains shown) VH: EVQLQQSGPELVKPGASVKISCKTSGYTFTKNTMHWVRQSHGKSLEWIGGINPNSGGASFNQKFMGKATLTVDKSSSTAYMELRSLTSEDSAVYYCARDGYDGDWFFDVWGAGTTVTVSS VL: DIQMNQSPFSLSASLGDTVTITCHASQNIYVWLSWYQQKPGNIPKLLIYKASDLHTGVPSRFSGSGSGTDFTLNISSLQPEDIATYYCQQGQSYPRTFGGGTKLEIK	–	3.67	2.24	1.28	0.82	40.4	0.82	821	2.24	2.79	1.28	821	–	–	–
CPA.9.057 (Fab, V domains shown, phage fab, campaign 2; fab form of CPA.9.057-H4; also called CPA.9.057 (fab)) VH: QVQLQESGPGLVKPSETLSLTCTVSGGSISSSSYYWGWIRQPPGKGLEWIGSIYYSGSTYYNPSLKSRVTISVDTSKNQFSLKLSSVTAADTAVYYCARQGAAAGNPFDIWGQGTMVTVSS VL: QSVLTQPPSVSGTPGQRVTISCSGSSSNIGSNFVYWHQQLTGTAPKLLIYRNTQRPSGVPDRFSGSKSGTSASLAIGGLRSEDEADYYCATWDDSLSAWVFGGGTKLTVL	30	–	–	–	–	–	–	–	–	–	–	–	–	–	–
